{"source": "paper PMC6143433", "about": "(Biochemistry, 2018)", "biological_target": "the molecule itself", "test": "SEC"}
{"protein": "MftE from M. ulcerans (enzyme, UniProt A0PM51 1-250, looked up) MNSSYHRRVPVLGELGTSTSSQLPSTWPSILIPLGSTEQHGPHLPLDTDTRIATAVGRAVATRMHGRLTQCQPGWLLAPPIAYGASGEHQSFAGTISIGAEALRVLLLEYGRSAACWADRLVFVNGHGGNVEALRGAVRQLRAEGRDAGWSACGSAGGDAHAGHTETSVLLHISPEVVLTDRLSAGNAAPLAELLPSLRRGGVAAVSPIGVLGDPTTATAVEGRRIFAEMVDDCVSRIARWTPGPDGMLT", "values": [{"measurement": "stoichiometry N", "result": 8}]}
